Assay [1] has as its target CK8/18 Ab (mouse antibody detected by the secondary anti-mouse antibody). In words: microscopy count on SKBR3 cells; 80 uL anti-mouse IgG-biotin, 7.5 uL Mag-Strept, 7.5 uL Mag-anti FITC.
Assay [2] shares this target. As to the kind of experiment: microscopy count on SKBR3 cells; 80 uL anti-mouse IgG-biotin, 7.5 uL Mag-Strept, 0 uL Mag-anti FITC.

Consider “Secondary antibody-biotin = goat anti-mouse IgG biotin (whole molecule)-Biotin”, for which the Carrier particles per cancer cell (carrier particles per cancer cell) in assay [1] is 1110; in assay [2], 133.

Source of the values: patent US20170102390A1.
